What is called EC50 is the concentration needed to bring the measured effect to its halfway point. High values mean a need for much substance, low ones an effect from little substance.

The source of these data is US20210292414A1 (H LUNDBECK A S, published 2021).

Residue numbers refer to the chain shown, from its start.

The chains are these.
T1: Sortilin SORTECDBAP_hB12390 (human/tetraodon chimera)
T1 construct: Shuffle construct: chimeric human/tetraodon Sortilin ECD with BAP tag
T1 chain: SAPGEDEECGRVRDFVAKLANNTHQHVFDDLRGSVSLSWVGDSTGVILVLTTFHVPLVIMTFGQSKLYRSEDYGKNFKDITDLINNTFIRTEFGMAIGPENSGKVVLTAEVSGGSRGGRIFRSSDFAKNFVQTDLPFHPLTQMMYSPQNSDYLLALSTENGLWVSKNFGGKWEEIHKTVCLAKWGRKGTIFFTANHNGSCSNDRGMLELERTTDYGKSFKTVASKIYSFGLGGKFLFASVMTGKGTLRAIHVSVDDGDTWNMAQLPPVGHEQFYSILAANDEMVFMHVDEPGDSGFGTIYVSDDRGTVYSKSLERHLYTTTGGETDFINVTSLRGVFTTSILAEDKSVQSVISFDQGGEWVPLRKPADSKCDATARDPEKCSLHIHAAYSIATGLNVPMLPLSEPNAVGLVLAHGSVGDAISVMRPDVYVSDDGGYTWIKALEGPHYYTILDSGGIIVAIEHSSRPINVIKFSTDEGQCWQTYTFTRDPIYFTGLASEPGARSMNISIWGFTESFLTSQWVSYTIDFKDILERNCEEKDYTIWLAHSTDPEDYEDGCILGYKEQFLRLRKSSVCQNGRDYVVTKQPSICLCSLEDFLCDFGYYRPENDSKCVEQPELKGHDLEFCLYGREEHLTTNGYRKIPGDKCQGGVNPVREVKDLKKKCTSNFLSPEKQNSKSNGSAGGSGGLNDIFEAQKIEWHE

T2: Sortilin SORTECDBAP_hB01-05 (human/tetraodon chimera)
T2 construct: Shuffle construct: chimeric human/tetraodon Sortilin ECD with BAP tag
T2 chain: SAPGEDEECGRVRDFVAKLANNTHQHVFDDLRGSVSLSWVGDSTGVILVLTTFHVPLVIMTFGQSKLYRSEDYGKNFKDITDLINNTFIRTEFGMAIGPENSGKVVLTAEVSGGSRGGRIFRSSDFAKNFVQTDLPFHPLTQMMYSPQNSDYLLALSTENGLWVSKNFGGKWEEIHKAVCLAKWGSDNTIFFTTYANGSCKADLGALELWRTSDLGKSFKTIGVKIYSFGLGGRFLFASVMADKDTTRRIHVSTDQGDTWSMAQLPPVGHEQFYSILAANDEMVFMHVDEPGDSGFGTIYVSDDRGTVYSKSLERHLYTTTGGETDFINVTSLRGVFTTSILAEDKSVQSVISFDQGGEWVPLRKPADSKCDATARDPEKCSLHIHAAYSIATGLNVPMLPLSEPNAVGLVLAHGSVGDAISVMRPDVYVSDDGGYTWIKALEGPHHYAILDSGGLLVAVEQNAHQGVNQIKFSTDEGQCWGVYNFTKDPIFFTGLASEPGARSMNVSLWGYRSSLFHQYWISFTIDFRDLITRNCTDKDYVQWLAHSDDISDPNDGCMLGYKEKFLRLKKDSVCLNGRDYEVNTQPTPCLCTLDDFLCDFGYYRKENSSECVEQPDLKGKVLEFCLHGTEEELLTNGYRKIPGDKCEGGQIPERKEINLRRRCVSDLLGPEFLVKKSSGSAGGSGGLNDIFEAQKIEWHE

T3: Sortilin SORTECDBAP_hB06-10 (human/tetraodon chimera)
T3 construct: Shuffle construct: chimeric human/tetraodon Sortilin ECD with BAP tag
T3 chain: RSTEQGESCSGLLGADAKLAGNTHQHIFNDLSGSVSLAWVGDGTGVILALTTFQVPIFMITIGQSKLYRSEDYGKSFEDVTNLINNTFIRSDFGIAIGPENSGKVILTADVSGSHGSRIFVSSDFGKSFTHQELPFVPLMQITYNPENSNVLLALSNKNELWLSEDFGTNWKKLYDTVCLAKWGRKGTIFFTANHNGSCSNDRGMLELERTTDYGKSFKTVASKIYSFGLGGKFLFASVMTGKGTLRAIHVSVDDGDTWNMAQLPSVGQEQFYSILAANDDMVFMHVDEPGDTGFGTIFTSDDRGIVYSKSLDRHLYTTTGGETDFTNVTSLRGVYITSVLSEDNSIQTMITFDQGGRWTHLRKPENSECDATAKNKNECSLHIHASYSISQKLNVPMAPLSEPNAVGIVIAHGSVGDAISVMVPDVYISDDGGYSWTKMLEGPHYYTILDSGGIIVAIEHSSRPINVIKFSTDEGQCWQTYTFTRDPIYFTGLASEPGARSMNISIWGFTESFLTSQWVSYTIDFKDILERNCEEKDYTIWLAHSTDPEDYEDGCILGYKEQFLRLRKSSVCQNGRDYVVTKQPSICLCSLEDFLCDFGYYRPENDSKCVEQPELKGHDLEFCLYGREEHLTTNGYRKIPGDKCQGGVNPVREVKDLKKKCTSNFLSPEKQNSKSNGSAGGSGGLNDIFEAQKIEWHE

T4: hRim
T4 chimeric human/tetraodon Sortilin extracellular region, BAP tag: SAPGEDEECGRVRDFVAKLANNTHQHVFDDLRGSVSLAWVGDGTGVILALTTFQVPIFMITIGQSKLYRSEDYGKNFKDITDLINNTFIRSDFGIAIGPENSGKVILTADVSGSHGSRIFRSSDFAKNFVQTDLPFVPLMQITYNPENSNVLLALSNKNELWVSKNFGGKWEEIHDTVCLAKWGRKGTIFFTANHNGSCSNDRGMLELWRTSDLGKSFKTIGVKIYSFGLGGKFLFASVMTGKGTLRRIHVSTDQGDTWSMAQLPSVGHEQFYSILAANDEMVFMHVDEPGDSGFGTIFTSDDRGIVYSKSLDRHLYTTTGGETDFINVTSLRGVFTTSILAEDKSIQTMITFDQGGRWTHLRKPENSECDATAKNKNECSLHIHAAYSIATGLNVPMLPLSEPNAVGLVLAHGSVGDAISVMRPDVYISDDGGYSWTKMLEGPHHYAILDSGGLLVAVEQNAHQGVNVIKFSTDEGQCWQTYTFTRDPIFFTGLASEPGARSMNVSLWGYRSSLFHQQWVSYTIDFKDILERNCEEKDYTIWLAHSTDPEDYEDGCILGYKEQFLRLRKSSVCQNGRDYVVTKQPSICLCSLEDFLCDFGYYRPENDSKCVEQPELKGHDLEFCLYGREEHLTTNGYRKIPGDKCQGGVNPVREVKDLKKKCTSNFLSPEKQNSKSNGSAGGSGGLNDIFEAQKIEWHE

B1: IgG1-6003-910 (antibody, V domains shown)
VH: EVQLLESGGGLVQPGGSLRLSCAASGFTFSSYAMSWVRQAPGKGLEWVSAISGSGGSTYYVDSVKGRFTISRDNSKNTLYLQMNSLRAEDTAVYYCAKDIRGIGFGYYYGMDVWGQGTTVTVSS
VL: EIVLTQSPATLSLSPGERATLSCRASQSVSSYLVWYQQKPGQAPRLLIYDASNRATGIPARFSGSGSGTDFTLTISSLEPEDFAVYYCQQRSNWPPTFGQGTRLEIK
notes: also called Antibody 6003-910
B2: IgG1-6003-972 (antibody, V domains shown)
VH: QVQLVESGGGVVQPGRSLRLSCAASGFTFSDYAMHWVRRAPGKGLEWVVVISYDGSNKYYADSVKGRFTISRDNSKNTLYLQMNSLRAEDTAVYYCARDPSGGWYFDLWGRGTLVTVSS
VL: B1 VL with V34A, V85L, N93H, P96R, R103K, L104V
notes: also called Antibody 6003-972
B3: Antibody 6003-799 (antibody, human IgG1, V domains shown)
VH: QVQLVESGGGVVQPGRSLRLSCAASGFTFSSYGMHWVRQAPGKGLEWVTVISYDGSNKYYADSVKGRFTISRDNSKNTLYLQMNSLRAEDTAVYYCAKLTGDAFDIWGQGTMVTVSS
VL: EIVLTQSPATLSLSPGERATLSCRASQSVSSYLVWYQQKPGQAPRLLIYHASNRATGIPARFSGSGSGTDFTLTISSLEPEDFAVYYCQQRSNWPRITFGQGTRLEIK
B4: Antibody 6003-886 (antibody, human IgG1, V domains shown)
VH: QVQLVQSGAEVKKPGASVKVSCKASGYTFTKYGISWVRQAPGQGLEWMGWISAYNGNTNYAQKLQDRVTMTTDTFTSTAYMELRSLRSDDTAVYFCARDGPLTGDFTFYGMDVWGQGTTVTVSS
VL: B3 VL with V34A, H50D, R96P, I97F, Q101P, R104K, L105V, E106D
B5: Antibody 6003-822 (antibody, human IgG1, V domains shown)
VH: EVQLLESGGGLVQPGESLTLSCAASGFTLSSYAMSWVRQAPGKGLEWVSSISGRLGTTYYAASVKGRFTISRDNSKNTLYLQMNSLRAEDTAIYSCAKAPSDAFDIWGQGTMVTVSS
VL: B3 VL with V34A, H50D, R96I, I97F, Q101P, R104K, L105V, E106D
B6: Antibody 6003-900 (antibody, human IgG1, V domains shown)
VH: EVQLVESGGGLVKPGGSLRLSCAASGFTFSSYSMNWVRQAPGKGLEWVSSISSSSSYIYYADSVKGRFTISRDNAKNSLYLQMNSLRAEDTAVYYCARRGSGSYDAFDIWGQGTMVTVSS
VL: EIVLTQSPDFQSVTPKEKVTITCRASQSIGYSLHWYQQKPDQSPKLLIKYASQSFSGVPSRFSGSGSGTDFTLTINSLEAEDAAAYYCHQSSSLPLTFGGGTKVEIK
notes: also called antibody 900; Sortilin human antibody 900

The first assay has as its target T1, Sortilin SORTECDBAP_hB12390. In words: BLI (Octet384RED).
Molecule B1 yielded an EC50 of 1.84 ng/mL.
The same measure, in the same setting: with B2 the figure was 2.36 ng/mL; with B3, 3.36 ng/mL.
The same measure, in the same setting: then B4, with 3.36 ng/mL.
Still for that read-out and setting: with B5 the figure was 1.89 ng/mL; with B6, 1.06 ng/mL.

For the next assay, the target named is T2, Sortilin SORTECDBAP_hB01-05. In words: BLI (Octet384RED).
As to B1, the binding result was “no binding”.
The same measure, in the same setting: then B2, with “no binding”.
Same read-out and setting: then B3, with “no binding”; and B4, with “no binding”; and B5, with “no binding”.
The same measure, in the same setting: then B6, with “no binding”.

A further assay has as its target T3, Sortilin SORTECDBAP_hB06-10. The assay is described as follows: BLI (Octet384RED).
B1 returned an EC50 of 1.16 ng/mL.
Same read-out and setting: with B2 the figure was 1.12 ng/mL.
The same measure, in the same setting: with B3 the figure was 2.63 ng/mL; with B4, 2.44 ng/mL.
As to B5, a half-maximal effect (EC50) was put at 1.49 ng/mL.
The same measure, in the same setting: with B6 the figure was 0.91 ng/mL.

The next assay addresses T4, hRim. In words: BLI (Octet384RED).
The molecule B1 displayed a concentration giving a half-maximal response (EC50) of 2.59 ng/mL.
The same measure, in the same setting: then B2, with 3.08 ng/mL; and B3, with 5.02 ng/mL; and B4, with 4.42 ng/mL.
The same measure, in the same setting: with B5 the figure was 2.31 ng/mL; with B6, 1.26 ng/mL.
